Measurements taken from the DeepSol protein solubility set.

assay: soluble on expression in E. coli; label from the status in PepcDB or PDB records

Sequence | soluble on expression in E. coli
MEIGVVGKPNVGKSTFFSAATLVDVEIANYPFTTIEANVGVTYAITDHPCKELGCSPNPQNYEYRNGLALIPVKMVDVAGLVPGAHEGRGLGNKFLDDLRMASALIHVVDATGKTDPEGQPTDYHDPVEDIEFLEREIDYWIYGILSKGWDKFAKRIKLQKIKLESAIAEHLSGIGVNENDVWEAMHKLNLPEDPTKWSQDDLLAFASEIRRVNKPMVIAANKADAASDEQIKRLVREEEKRGYIVIPTSAAAELTLRKAAKAGFIEYIPGASEFKVLRDMSEKQKRALMVIKEKVLDRFGSTGVQEVINRVVFDLLKLIPVYPVHDENKLTDQFGNVLPHVFLMKKGSTPRDLAFKVHTDLGKGFLYAINARTKRRVGEDYELQFNDIVKIVSVTR | soluble
LQERDIVPVDASYEVKELYVPENKLHLAKTDAETLPALKINKVDMQWVQVLAEGWATPLNGFMREREYLQCLHFDCLLDGGVINLSVPIVLTATHEDKERLDGCTAFALMYEGRRVAILRNPEFFEHRKEERCARQWGTTCKNHPYIKMVMEQGDWLIGGDLQVLDRVYWNDGLDQYRLTPTELKQKFKDMNADAVFAFQLRNPVHNGHALLMQDTHKQLLERGYRRPVLLLHPLGGWTKDDDVPLMWRMKQHAAVLEEGVLNPETTVVAIFPSPMMYAGPTEVQWHCRARMVAGANFYIVGRDPAGMPHPETGKDLYEPSHGAKVLTMAPGLITLEIVPFRVAAYNKKKKRMDYYDSEHHEDFEFISGTRMRKLAREGQKPPEGFMAPKAWTVLTEYYKSLEKA | soluble
MGHHHHHHSHMKAFSPVRSVRKNSLSDHSLGISRSKTPVDDPMSLLYNMNDCYSKLKELVPSIPQNKKVSKMEILQHVIDYILDLQIALDSHPTIVSLHHQRPGQNQASRTPLTTLNTDISILSLQASEFPSELMSNDSKALCG | soluble
GAITKAVFDNEQGQAQRLQTSSSVEHGQMLFKDANLKTPSDVLNAFAKLDSKMVKSHAAELSQLAERAMTEVMLETDSGKNLKALIGDDAVKSLAVRVVKDYGGGVAAAQKNPEVRINQMQAVFDMEVMHLKAAQRHIEGLASTDLNQGVYAEGLPEDAFNKAGVTNNVERAAAWIINASNSKGNDAENITSLLKEYATNGKDLLNMDNLKELHARLVPNVERDYRGPNISGGTLPSSIGGEGMLKQHIEGFLKENPVADKDLGKHLFAGVIGYHGFTDGNGRMGRMLYAIAELRNDSFNPLAMNAENSLHGIK | soluble
MSRAASLRAELTSLANAFEEERISSAERLDADLVRQAVEQAKPENLEQWKQVVHDATAKLQQFWEDSEQALIRETYALATSYLRESDDEVHRLQMTKKALEEQLETERRRSTRIEEQLAALQSRLLDSAAPAATTPADDARTQQEVLRSELQGFMQELVRNQRESLRVLQEELQRVREEASVREENLLRQIAHLKTELAVARTDNEVSSRQLRQLETSAGREEVQDELGPGTIWPPHLTPRRGHRRFQRHNRLEDAPAPPEF | not soluble
MGSDKIHHHHHHMPEKLDTVLGYLKEFPDYYKYVTKKTYTVNEKIIFEDEKAKSIFFIVEGYAAVELEDNLRKTNYISIFVLPYNVLGIDAFSSYPKKKHSITVMSEHLMLYKIDADFLLNILSIKPDVNDFLLTSIADVFARHYALLGMIAKTPKERIYMALENLAVEMGTEDEERNEIVLPNFINQSVLARYCRTTQPNISNLLTELVEEEFLVNKKSPYRIDKDSLDI | not soluble
MTMPLRGLGPPDDTGVREVSTGDDHHYAMWDAAYVLGALSAADRREFEAHLAGCPECRGAVTELCGVPALLSQLDRDEVAAISESAPTVVASGLSPELLPSLLAAVHR | soluble
MYEQQQHFMDLQSDSGFGDDSSWLAGDDDLRLSPHQSAAGTNSGNENLDRRLLKDLVEMVPLIEHYMEHKERSSFKRRGSMIYTKMPSKESLSRRGRNASQTVPGRKKRDQEGNDDVMNNSREDDENAKALAGAEKEEMSRLREQVNDLQTKLSEKEEVLKSMEMSKNQVNEIQEKLEATNRLVAEKDMLIKSMQLQLSDTKIKLADKQAALEKTQWEAKTTGTRAIKLQEQLDAVEGDISTFTRVFETLAKTDSKKPDRDYDAVPYEFDHLPYLDDVDETDLRKMEEARLAYVAAVNTAKEREDEESLVMAAQARAYLQSLAFTY | soluble
IEDEVIYSKKRYKLKREIDKLFLDEEYFQIEPQLFEEYDEFTTINNKIPEESMVKVVNGKVMVLRADITTSIIKSLVPRWEDGLKLKLFYNSSIYKNKNTVGIKEIRQIGCEYLGEASVEADREVVKLALKILEKYNNNFILEVGSSKYIHGLLEELNLNKNCENQIKNLLYTKNTHELKVYIEELKIKHEVKELLSNILSLQGNLYNVIEKSNKFYCNNKMKQALEELKQVNNLIEECNFLDKARFDLSMITMLDYYEGIMFRGYYPNSYKEILSGGRYDSLTKEYGKEIPAIGFTLSVDELMKYVYK | not soluble
MAATTKKPEIAAQHKPQTAAAAVASPATGAQPGHYVDPAVASAAGVNNVPAQHQAPGSPAQGYGAAADIGGLTTQPTAISAGTSSIYSTATHSGSAAAQGMAAAQGGSAQKIIPAVSSVYSAPIQPSQPQPVAAPVAVPVAAQVPPEQHSENRQPAAVPVPQPEQRAAAQPATNAGATVEGREGEGRSLTLAAFFAGAAKKRLPKMIESGTAGNTEVAALSGAADGSMGIALSGRSMMSEEFDDAHLDEEDDQPNGLMKLASLSGLTRVSPNGLFLQTDHVEVGCFKPELVRMIKDVERHYNSPAIVTSGYRPPKGIRQGSKHYTCDAADIQIKGVSKWELATYLRSLPDRGGVGTYCHTESVHMDTGEARDWNWRCRRTAARK | not soluble
MKKRYQTLNEHYRQLFGAKMFKVPIDAGFDCPNRDGTVAHGGCTFCTVSGSGDAIVAPDAPIKEQFYKEIDFMHRKWPDVNRYLVYFQNFTNTHDTVDVIRDRYEQAINEPGVVGINIGTRPDCLPDDTIAYLAELSERMHVTVELGLQTTYEETSRLINRAHSYDLYKETVRRLRHYPNINIVSHLINGLPKETHDMMLENVRRCVTDNDIQGIKLHLLHLMTNTRMQRDYHEGRLKLLSQKDYVSIICDQLEIIPKHIVIHRITGDAPRDMLIGPMWSLNKWEVLNAIDKEMERRGSFQGCKVD | not soluble
MDIAKWVEHARTCYSTQLDTKIKVIGVIGKDYPDHGKGDNINCYLRENVFPVAATEDETCTIRGHFSEDDQILFLVMNGVDDVANIRKCLKSNPKSNYFDAMAESECQQIRMLHFLFISCHFIIIFEQTSRIDLELMRFLKKVNSARIQLRKKINQRLVASDLRDVSFNNRILSSAESEGRMVVPRLLIAFQRNNIRPDVNPGKKRELYEKLEKNLDNQFSDILKLYDLIDCGASSLCQLNETIPVVHLLNPKIVKRDIIGEMFEILMADAENTKISGNAGTLPSNNSFVKFLEDNFRSEKNEISLENVIELMNCLQCVLDGDLEEKHEKTAIQTFIKRIQNDHMEEARRLYTNAQRPGERRGADRFKDSEKPVKIRSKEEHLMRVEKPKKFCIFISFQNVLQFNEATHYIDSVVGVNSREALSQLQAQCNEMWQSDMRACESVSMMGRSCVRKIHPTFGDQTAPEHRWTAHDASNTMISTCVCGRKQLIRPEPFSVKEANSDFYDHPDFKCCRRLWRYQFQLYQEDSEEKDDIMWADRESNSLRAAKKMAQREDELAEEDTDLDIPESLLDPDSTSPSDEDDVRVRTMSSSESSSQESDAYLRPTSRRDESMASKTERELTIDHVKRMQKLELAGKSEDFLITVPNSMTTGKLPIFPSWHLTSLGDSSIYSHGAGLKNQPNFKIGGDYLSPVVVLLDVNFDVWNRDLNKIRSEDFSRKCGKDNKDDSARVKLFVGFEYECSRGHRFFVDYNGEPLIYSKGSNVIRESAHRSSLGNVLQADLPIRRPCTCRKLPLQSAQLQKVHVVTPKAPVHITIDPKVLIPTHEGVYGTGQEPLELHHSKYYILHLPTVYSGPSGAWMPGEFNPEKQGVWMGGALKVAYKPVMSFKW | not soluble
MGSDKIHHHHHHMAENFLTQDEVDALLNFENGSKHQQTAQKENEVSYPGGVRPYNMATQERIVRGRMPALEIINARFANSLQIGLYNFLRRGVDISAGSIKTIKYSEFTRSLVVPANINLVSMKPLRGTALFTIDPNLIFLIVDNMFGGDGRFHTRVEGREFTLTEQGIIRRLLDVLFEHYEKAWQSVYPVKFEYIRAEMNPQFANIVTPTDIVVASAFELNLGGNRGEFYTCIPYTMLEPIRDLLNNSMQEDRAEVDKNWIKSLTRQVQGAEIEIIANLGQTQVTLHQILNMQEGDVIALDIPDTVVAIANNVPIMDCHYGILNGHYALKVKTVRSPNETD | not soluble
MSLKRLNCRRKGIRVRILAIDTSNQTLSIAVCENQKILGSYTATVKRNHSLTLMPAIDYLMSQLNLAPTAIDRFVVAEGPGSYTGLRLGVTTAKTLAYTLKKELVGISSLQTLAANCVGQTGLIVPLFDARRKNVYAGAYRFVNGVWQNELPDQHISLRELLEQLKNEPNLFFVGEDVEKFTEEIAQIIPHGEICDVPQWQIPNAAVLAALGSVAEPVENVHGFLPAYLKKVEAEENWLKTHTPNGESYVEKLEGHHHHHH | soluble
MSLNVVNSIFSKLSIAPMIDWTNSPFRTLMRLLAPNALLYTEMQTTGAVQNNPDRALYFNSVEHPLAIQLGGADKSALVKCAIIAEQKGFNEINLNLGCPSDKVQAGRFGACLMKEPEHVADCIRAIKQVVGIPVTAKTRIGIDNQDSYEFFRSFSLHLVEAGCDKLIIHARKAWLNGLNPKQNRTIPPVNYDYVYELKKEIPHIFITINGNILTVEEINNHLKHVDGVMLGRLACDNPYQIAEIHQALYPEFIKIKRSQLLMNYLDYWFDQSRANLSLSILVKPLFNLAFGLPGAKHWKKKLMNIIQEKNTSGFSELIQYLLNLEAINQVEEGHHHHHH | soluble
MSLDTYTTSEVADLIGVHPNTVRLYEELNLIPKPKRNTNGYRIFNDFHIEQFRFARTALKIEVVQRGLRKDALEIVRTSANRDFDKAISLVNQYLQQLEIEKSNAEEALTIVAQILNGNTPETNKLFLTRKETAEHLNVTIDTLRNWEMNGLLKVKRKQNGYRVYTDEDIKRLKIISALRCANYSLSAILRMLNALSSNPNTNIKTVLDTPKDDDEIISVCDKLITSLKEAEHNAKTMKSHLQIMKKQFSEGHHHHHH | soluble
AHHHHHHGSPCYNLKNKVAIVTGGGQGIGAAIAQLFAENGAKVVLAEIDEEAGLEREAMLRERGLDVTFIKTDVADEESVKNMVKKTVELYGGVDILVNNAAIMSVKSIFERTLEEWERVIRVNLTGPYICSRYAAEEMIKRGGGVIINIASTRALMSEPDTEPYSASKGGLLALTHSLAISLAKYRIRVVAVSPGWIETSRWKKSKLRSEPKLRPIDHEQHPAGRVGDPMDIAHICAFLADNEKAGFITGVNFVVDGGMTVKMIYAD | not soluble
MEKLIILGAQWGDEGKGKIVDLLSEHFDITVRYQGGSNAGHTVVVNSQKFILHLLPTGILHEHVKGVIAQGMVVDLEVLHKEVKNLEEKGIYVKERLFISDRAHLVMPYHKLLDSLFEKKKGIGTTLRGIGPAYMFKYGRKGIRISDLKDEKRFYTLLEDNLDFVKNICEKVFCEKFDLDINQIYEEQLRYFEEFKENVVDLLRFFNTQKGSVLFEGAQGTLLDVDMGTYPYVTSSNASALGLSNGTGMPPKYFSDAFFLGVAKAYTTRVGEGPFPTELKGEEGEKLRELGGEYGSTTGRPRRCGWLDLVALKYAVQVNGLDGFVITKLDVLDTFDEVKVCVAYELDGEVIDYFPASYSELIRVKPVYKTLKGWKKSTKGAKDVSELPKEALDYVKFIEEYTGVPVVMLSTGPKRDEYIWLKEILRTRSGYS | soluble
MAIPKIASYPLPVSLPTNKVDWRIDASRAVLLIHDMQEYFVHYFDSQAEPIPSLIKHIQQLKAHAKQAGIPVVYTAQPANQDPAERALLSDFWGPGLSEETAIIAPLAPESGDVQLTKWRYSAFKKSPLLDWLRETGRDQLIITGVYAHIGILSTALDAFMFDIQPFVIGDGVADFSLSDHEFSLRYISGRTGAVKSTQQACLEIAAQHSKLTGLSLRTMQHDVAAALNLSVDEVDVQENLLFLGLDSIRAIQLLEKWKAQGADISFAQLMEHVTLQQWWQTIQANLHQPCSA | not soluble
